Like-named read-outs stand apart in the source and are kept apart here.
T1: monkey CD40 on HEK293A/monkey CD40 cells (monkey, UniProt P25942 21-277 (human entry))
T1 chain: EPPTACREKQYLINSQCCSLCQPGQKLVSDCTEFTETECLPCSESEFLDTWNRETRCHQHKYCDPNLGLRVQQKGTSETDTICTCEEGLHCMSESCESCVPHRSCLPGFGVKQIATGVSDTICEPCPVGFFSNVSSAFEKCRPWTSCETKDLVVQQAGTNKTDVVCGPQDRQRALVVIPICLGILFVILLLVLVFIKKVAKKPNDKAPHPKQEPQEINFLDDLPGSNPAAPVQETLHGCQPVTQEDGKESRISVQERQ

T2: mouse CD40 on HEK293A cells (mouse, UniProt P27512 20-289)
T2 sequence: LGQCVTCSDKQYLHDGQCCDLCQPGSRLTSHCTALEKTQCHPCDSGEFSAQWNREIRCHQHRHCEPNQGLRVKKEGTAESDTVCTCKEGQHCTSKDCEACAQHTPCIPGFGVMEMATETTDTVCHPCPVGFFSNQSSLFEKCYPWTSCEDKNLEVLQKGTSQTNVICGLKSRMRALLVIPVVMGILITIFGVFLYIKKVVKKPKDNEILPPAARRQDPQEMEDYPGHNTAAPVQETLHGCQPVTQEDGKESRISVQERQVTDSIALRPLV

B1: MBS307-3 (bispecific antibody, human IgG1, kappa, L234A L235A)
heavy: QVQLQESGPGLVKPSDTLSLTCAVSGYSITTNYYWNWIRQPPGKGLEWMGYIKYDGSNNYNPSLKNRITISVDTSKNQFSLKLSSVTAVDTAVYYCARLDYWGQGTLVTVSSASTKGPSVFPLAPSSKSTSGGTAALGCLVKDYFPEPVTVSWNSGALTSGVHTFPAVLQSSGLYSLSSVVTVPSSSLGTQTYICNVNHKPSNTKVDKKVEPKSCDKTHTCPPCPAPEAAGGPSVFLFPPKPKDTLMISRTPEVTCVVVDVSHEDPEVKFNWYVDGVEVHNAKTKPREEQYNSTYRVVSVLTVLHQDWLNGKEYKCKVSNKALGAPIEKTISKAKGQPREPQVYTLPPSREEMTKNQVSLTCLVKGFYPSDIAVEWESNGQPENNYKTTPPVLDSDGSFFLYSKLTVDKSRWQQGNVFSCSVMHEALHNHYTQKSLSLSPGSGGGGSGGGGSQVQLQESGPGLVKPSQTLSLTCTVSGGSITSDYWNWIRQHPGNKLEYMGYISYTGSTYYNPSLKSRISITRDTSKNQFSLKLSSVTTADTAVYYCARYRDWDVRAMDYWGQGTTVTVSSGGGGSGGGGSGGGGSGGGGSDIVMTQSPDSLAVSLGEKVTMNCKSSQSLLISGNQKNFLTWYQQKPGQPPKLLIYWASTRESGVPDRFSGSGSGTDFTLTISSLQAEDEAVYYCQNDFGFPFTFGQGTKLTAK
light: DVVLTQSPLSLPVTLGQPASISCRSSQSLENSNGNTFLNWFQQRPGQSPRLLIYKVSNRFSGVPDRFSGSGSGTDFTLKISRVEAEDVGVYYCLQVTHVPFTFGQGTKLEIKRTVAAPSVFIFPPSDEQLKSGTASVVCLLNNFYPREAKVQWKVDNALQSGNSQESVTEQDSKDSTYSLSSTLTLSKADYEKHKVYACEVTHQGLSSPVTKSFNRGEC
notes: Symmetric: full-length anti-CD40 antibody with an anti-PD-L1 scFv (56E5VH5VL4) at the C terminus of each heavy chain
B2: MBS307-11 (bispecific antibody, human IgG1, kappa, L234A L235A)
heavy 1: QVQLQESGPGLVKPSDTLSLTCAVSGYSITTNYYWNWIRQPPGKGLEWMGYIKYDGSNNYNPSLKNRITISVDTSKNQFSLKLSSVTAVDTAVYYCARLDYWGQGTLVTVSSASTKGPSVFPLAPSSKSTSGGTAALGCLVKDYFPEPVTVSWNSGALTSGVHTFPAVLQSSGLYSLSSVVTVPSSSLGTQTYICNVNHKPSNTKVDKKVEPKSCDKTHTCPPCPAPEAAGGPSVFLFPPKPKDTLMISRTPEVTCVVVDVSHEDPEVKFNWYVDGVEVHNAKTKPREEQYNSTYRVVSVLTVLHQDWLNGKEYKCKVSNKALPAPIEKTISKAKGQPREPQVYTLPPSREEMTKNQVSLWCLVKGFYPSDIAVEWESNGQPENNYKTTPPVLDSDGSFFLYSKLTVDKSRWQQGNVFSCSVMHEALHNHYTQKSLSLSPGGGGGQVQLLESGGGLVQPGGSLRLSCAASGFAFSDYAMTWVRQAPGKGLEWVSTINSGGQSSSYLDSVKGRFTSSRDNSKNTLYLQMNSLRAEDTAVYYCAKGVYMPWKAPKGQGTLVTVSS
heavy 2: QVQLQESGPGLVKPSDTLSLTCAVSGYSITTNYYWNWIRQPPGKGLEWMGYIKYDGSNNYNPSLKNRITISVDTSKNQFSLKLSSVTAVDTAVYYCARLDYWGQGTLVTVSSASTKGPSVFPLAPSSKSTSGGTAALGCLVKDYFPEPVTVSWNSGALTSGVHTFPAVLQSSGLYSLSSVVTVPSSSLGTQTYICNVNHKPSNTKVDKKVEPKSCDKTHTCPPCPAPEAAGGPSVFLFPPKPKDTLMISRTPEVTCVVVDVSHEDPEVKFNWYVDGVEVHNAKTKPREEQYNSTYRVVSVLTVLHQDWLNGKEYKCKVSNKALPAPIEKTISKAKGQPREPQVYTLPPSREEMTKNQVSLSCAVKGFYPSDIAVEWESNGQPENNYKTTPPVLDSDGSFFLVSKLTVDKSRWQQGNVFSCSVMHEALHNHYTQKSLSLSPGGGGGQVQLVQSGAEVKKPGASVKVSCKASGYTFTDYHVNWVRQAPGQGLEWIGWIFPGSGRTFYTDKFKGRVTMTVDTSTSTVYMELSSLRSEDTAVYYCATDYGTSGYGLVYWGQGTTVTVSSGGGGSGGGGSGGGGSGGGGSDIQMTQSPSSLSASVGDRVTITCKASDRINNWLAWYQQKPGKAPKLLISGATSLETGVPSRFSGSGSGTDFTLTISSLQPEDEATYYCQQYWNIPFTFGQGTKLTAK
light: B1 light
notes: Asymmetric: knob chain with the anti-PD-L1 nanobody, hole chain with the 3C2VH6VL5 scFv; also called MBS307-11-1 + MBS307-11-2

Tests used:
[1] = biological target: monkey PD-L1 on HEK293A/monkey PD-L1 cells (monkey, UniProt Q9NZQ7 19-290 (human entry)); experiment: FACS on HEK293A/monkey PD-L1 cells
Protocol: (§1) The bispecific antibodies as prepared above were tested for their binding capability to cell surface human, monkey and mouse CD40 proteins by FACS, using the HEK293A cells prepared in Example 1 that stably expressed human, monkey or mouse CD40. Briefly, a 96-well plate was seeded with 10⁵ HEK293A cells in 50 μl PBS, and then added with 100 μl serially diluted anti-CD40 antibody 714VH2VL2 and the bispecific antibodies of the disclosure (starting concentration at 40 μg/ml). After incubation at 4° C. for 1 h, the plate was washed by PBST for 3 times. The plate was added with 1:500 diluted APC-goat anti-mouse IgG (Cat #:405308, BioLegen, USA), incubated at 4° for 1 h, washed with PBS for 3 times, and subjected to fluorescence measurement in a FACS machine (BD).
(§2) Following the protocol of Example 4, the bispecific antibodies were tested for their binding capability to cell surface human, or monkey PD-L1 proteins by FACS, using the HEK293A cells prepared in Example 1 that stably expressed human or monkey […].

[2] = biological target: T1, monkey CD40 on HEK293A/monkey CD40 cells; experiment: FACS on HEK293A/monkey CD40 cells
Protocol: as §1

[3] = biological target: T3, human PD-L1 on HEK293A/human PD-L1 cells (human, UniProt Q9NZQ7 19-290); experiment: FACS blocking assay on HEK293A/human PD-L1 cells; blocked ligand PD-1-Fc
Protocol: (§3) The bispecific antibodies were tested for their blocking activity on PD-1-PD-L1 binding by FACS using the HEK293A cells stably expressing human PD-L1 molecules as prepared in Example 1. Briefly, a 96-well plate was seeded with 10⁵ HEK293A/human PD-L1 cells in 100 μl cell culture medium, and then added with 50 μl serially diluted anti-PD-L1 antibody 56E5VH5VL4 or MBS307-3 molecules. After incubation at 4° C. for 1 h. the plate was washed with PBST for 3 times, added with 100 μl 200 μg/ml PD-1-Fc fusion proteins (Cat #:10377-10211, Sino Biological, CN), incubated at 4° C. for 1 h, washed with PBST for 3 times, and added with 1:500 diluted PE-goat anti-human IgG (Cat #:PAI-86078, Thermofisher, USA). After incubation at 4° C. for 1 h, the plate was washed with PBST for 3 times and measured for fluorescence using a FACS machine (BD).

[4] = biological target: T4, human CD40 on HEK293A/human CD40 cells (human, UniProt P25942 21-277); experiment: FACS on HEK293A/human CD40 cells
T4 construct: also called HEK-Blue/CD40 cells
Protocol: as §1
(§4) Following the protocols in Example 4 and Example 5, the bi- or multi-specific antibodies of the disclosure were tested for their binding capability to human PD-L1 and human CD40 proteins by FACS using the HEK293A cells prepared in Example 1 that stably expressed human PD-L1 or human CD40.

[5] = biological target: T2, mouse CD40 on HEK293A cells; experiment: FACS on HEK293A cells expressing mouse CD40
Protocol: as §1

[6] = biological target: T3, human PD-L1 on HEK293A/human PD-L1 cells; experiment: FACS on HEK293A/human PD-L1 cells
Protocol: as §1, §4

human PD-L1-his protein = biological target: T5, human PD-L1-his protein (human, UniProt Q9NZQ7 19-238); experiment: SPR (BIAcore 8K), human PD-L1-his coupled to CM5 chip, antibody injected
T5 construct: extracellular domain; also called human PD-L1 (ECD)-his; human PD-L1 protein; not shown: his tag
Text: (§5) Using BIAcore™ 8K instrument (GE Life Sciences, US), the binding affinity of the bi- or multi-specific antibodies to human CD40 and PD-L1 was quantitatively measured. Briefly, 100-200 response units (RU) of human CD40-his protein (Cat #:10774-1108H, Sino Biological, CN) or human PD-L1-his protein (Cat #:10084-H08H, Sino Biological, CN) were coupled to CM5 biosensor chips (Cat #:BR-1005-30, GE Life Sciences. USA). The un-reacted groups were then blocked with 1 M ethanolamine. Serially diluted antibodies at concentrations ranging from 0.3 μM to 10 μM were injected into the SPR running buffer (HBS-EP buffer, pH7.4, Cat #:BR-1006-69, GE Life Sciences, USA) at 30 μL/min. The binding affinity was calculated with the RUs of blank controls subtracted, and the association rate (kₐ) and dissociation rate (kd) were determined using the one-to-one Langmuir binding model (BIA Evaluation Software, GE Life Sciences, USA). The equilibrium dissociation constant KD was calculated as the kd/kₐ ratio.

human CD40-his protein = biological target: T6, human CD40-his protein (human, UniProt P25942 21-193); experiment: SPR (BIAcore 8K), human CD40-his coupled to CM5 chip, antibody injected
T6 construct: Bought protein; also called human CD40 protein; CD40 molecules; not shown: his tag
Text: as §5

[7] = biological target: T4, human CD40 on HEK293A/human CD40 cells; experiment: cell-based or functional assay
[8] = biological target: T3, human PD-L1 on HEK293A/human PD-L1 cells; experiment: FACS blocking assay on HEK293A/human PD-L1 cells; blocked ligand PD-1-Fc; remark: listed apart in the source
Protocol: as §3
(§6) Following the protocol of Example 7, the bi- or multi-specific antibodies were tested for their capability to block PD-1-PD-L1 binding by FACS, using the HEK293A cells prepared in Example 1 that stably expressed human PD-L1 molecules.

[9] = biological target: T4, human CD40 on HEK293A/human CD40 cells; experiment: FACS on HEK293A/human CD40 cells; remark: listed apart in the source
Protocol: as §1

[10] = biological target: T3, human PD-L1 on HEK293A/human PD-L1 cells; experiment: FACS on HEK293A/human PD-L1 cells; remark: listed apart in the source
Protocol: as §1, §4

[11] = biological target: T3, human PD-L1 on HEK293A/human PD-L1 cells; experiment: FACS on HEK293A/human PD-L1 cells; remark: listed apart in the source
Protocol: as §1, §2

[12] = biological target: T3, human PD-L1 on HEK293A/human PD-L1 cells; experiment: FACS blocking assay on HEK293A/human PD-L1 cells; blocked ligand PD-1-Fc; remark: listed apart in the source
Protocol: as §3, §6

[13] = biological target: T4, human CD40 on HEK293A/human CD40 cells; experiment: cell-based or functional assay; remark: listed apart in the source

T3 sequence (Q9NZQ7 19-290 limits assumed): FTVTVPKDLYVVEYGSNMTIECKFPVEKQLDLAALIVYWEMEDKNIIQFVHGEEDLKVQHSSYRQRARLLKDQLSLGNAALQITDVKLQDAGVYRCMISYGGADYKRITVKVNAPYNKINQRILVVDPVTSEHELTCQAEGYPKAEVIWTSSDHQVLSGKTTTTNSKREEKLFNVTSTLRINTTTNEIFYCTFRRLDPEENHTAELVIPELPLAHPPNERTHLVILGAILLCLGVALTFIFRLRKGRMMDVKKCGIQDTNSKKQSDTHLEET
T5 sequence (Q9NZQ7 19-238): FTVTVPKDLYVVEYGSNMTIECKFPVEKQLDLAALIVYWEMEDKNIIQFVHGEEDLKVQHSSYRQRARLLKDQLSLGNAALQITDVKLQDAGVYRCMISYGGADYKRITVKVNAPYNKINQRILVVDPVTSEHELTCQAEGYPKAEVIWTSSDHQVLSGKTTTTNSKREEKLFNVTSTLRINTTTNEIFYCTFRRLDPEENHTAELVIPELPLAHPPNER
monkey PD-L1 on HEK293A/monkey PD-L1 cells, sequence (Q9NZQ7 other isoform, or with tags, fused parts or gaps limits assumed): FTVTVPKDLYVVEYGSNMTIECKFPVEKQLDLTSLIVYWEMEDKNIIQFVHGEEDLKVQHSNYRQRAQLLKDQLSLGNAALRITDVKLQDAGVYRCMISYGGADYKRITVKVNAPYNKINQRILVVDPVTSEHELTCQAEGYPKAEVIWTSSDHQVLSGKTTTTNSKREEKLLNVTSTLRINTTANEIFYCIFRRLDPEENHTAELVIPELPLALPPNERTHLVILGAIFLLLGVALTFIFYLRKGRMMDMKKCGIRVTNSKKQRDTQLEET

Binder | EC50 (read off the curve) [1] | EC50 (read off the curve) [2] | IC50 (read off the curve) [3] | EC50 (read off the curve) [4] | binding result [5] | EC50 (read off the curve) [6] | Kd (human PD-L1-his protein) | Kd (human CD40-his protein) | EC50 (read off the curve); HEK-Blue/CD40 reporter, OD630, plate coated with human PD-L1-his [7] | IC50 (read off the curve) [8] | EC50 (read off the curve) [9] | EC50 (read off the curve) [10] | EC50 (read off the curve) [11] | IC50 (read off the curve) [12] | EC50 (read off the curve); HEK-Blue/CD40 reporter, OD630, plate coated with human PD-L1-his [13]
B1 | ~0.09 µg/mL | ~0.1 µg/mL | ~0.1 µg/mL | ~0.1 µg/mL | no binding (tested: starting concentration at 40 µg/ml) | ~0.2 µg/mL | 321 pM | 1420 pM | ~0.1 µg/mL | ~0.08 µg/mL | ~0.1 µg/mL | ~0.1 µg/mL | ~0.1 µg/mL |  | 
B2 |  |  |  |  |  |  | 69 pM | 4370 pM |  |  |  |  |  | ~0.01 µg/mL | ~0.01 µg/mL

Source: US20240084027A1 (BEIJING MABWORKS, published 2024)
